Experimental data reported in article PMC6566870.
Read-outs that look alike come from different tables or passages of the source.

How the values were obtained:
[1] = molecular target: N-terminally His6-tagged cMyc-tagged human CCR1 (human) (UniProt P32246)
[2] = molecular target: N-terminally His6-tagged cMyc-tagged human CCR1 (human) (UniProt P32246); test: radioligand binding; competitive displacement of 50 pM 125I-CCL3 from membranes of Flp-In T-REx 293 cells expressing CCR1; 2 h at 37 °C; two sets of experiments (Table 1, Table 3)
[3] = molecular target: N-terminally His6-tagged cMyc-tagged human CCR1 (human) (UniProt P32246); remark: listed apart in the source
[4] = molecular target: N-terminally His6-tagged cMyc-tagged human CCR1 (human) (UniProt P32246); remark: listed apart in the source
[5] = molecular target: N-terminally His6-tagged cMyc-tagged human CCR1 (human) (UniProt P32246); remark: listed apart in the source
[6] = molecular target: N-terminally His6-tagged cMyc-tagged human CCR1 (human) (UniProt P32246); test: radioligand binding; competitive displacement of 50 pM 125I-CCL3 from membranes of Flp-In T-REx 293 cells expressing CCR1; 2 h at 37 °C; two sets of experiments (Table 1, Table 3); remark: listed apart in the source

N-terminally His6-tagged cMyc-tagged human CCR1 (human), sequence (P32246 whole entry): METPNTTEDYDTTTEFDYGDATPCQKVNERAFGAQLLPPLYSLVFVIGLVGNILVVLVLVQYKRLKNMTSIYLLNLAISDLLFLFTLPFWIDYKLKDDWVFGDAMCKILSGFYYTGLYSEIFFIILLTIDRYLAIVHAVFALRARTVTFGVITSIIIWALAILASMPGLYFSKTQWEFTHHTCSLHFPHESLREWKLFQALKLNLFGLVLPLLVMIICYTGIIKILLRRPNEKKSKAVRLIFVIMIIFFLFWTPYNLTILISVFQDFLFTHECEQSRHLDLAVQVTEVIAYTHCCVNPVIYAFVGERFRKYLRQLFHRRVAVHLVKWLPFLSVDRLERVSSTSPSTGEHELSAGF

transduction coefficient Log(τ/KA), GPA αi1 [1] | transduction coefficient Log(τ/KA), GPA αi2 [1] | transduction coefficient Log(τ/KA), cAMP [1] | transduction coefficient Log(τ/KA), pERK [1] | IC50 [2] | pIC50 [2] | ERK1/2 phosphorylation, EC50 [3] | ERK1/2 phosphorylation, Emax [3] | ERK1/2 phosphorylation, pEC50 [3] | Gαi1 activation (BRET), EC50 [3] | Gαi1 activation (BRET), Emax [3] | Gαi1 activation (BRET), pEC50 [3] | Gαi2 activation (BRET), EC50 [3] | Gαi2 activation (BRET), Emax [3] | Gαi2 activation (BRET), pEC50 [3] | inhibition of forskolin-induced cAMP production, EC50 [3] | inhibition of forskolin-induced cAMP production, Emax [3] | inhibition of forskolin-induced cAMP production, pEC50 [3] | Substance | other results
9 | 8.5 | 9.1 | 8.8 | 0.54 nM | 9.3 -log M | 1.3 nM | 28.2% | 8.9 -log M | 0.7 nM | 91.2% | 9.2 -log M | 1.5 nM | 124% | 8.8 -log M | 0.2 nM | 35.5% | 9.7 -log M | CCL15(N-CCL7) (ligand) | –
– | 8.3 | – | – | 0.028 nM | 10.6 -log M | – | – | – | – | – | – | 1.2 nM | 114% | 8.9 -log M | – | – | – | CCL15(Δ26) (ligand) | transduction coefficient Log(τ/KA), GPA αi1 (second set of experiments) [1]: 8.7; transduction coefficient Log(τ/KA), cAMP (second set of experiments) [1]: 8.4; transduction coefficient Log(τ/KA), pERK (second set of experiments) [1]: 8.7; transduction coefficient Log(τ/KA), GPA αi1 [4]: 8.6; transduction coefficient Log(τ/KA), cAMP [4]: 8.1; transduction coefficient Log(τ/KA), pERK [4]: 8.4; ERK1/2 phosphorylation, EC50 [5]: 2.3 nM; ERK1/2 phosphorylation, Emax [5]: 25.4%; ERK1/2 phosphorylation, pEC50 [5]: 8.6 -log M; G protein activation (Gαi1, BRET), EC50 [5]: 1 nM; G protein activation (Gαi1, BRET), Emax [5]: 111%; G protein activation (Gαi1, BRET), pEC50 [5]: 9 -log M; inhibition of forskolin-induced cAMP production, EC50 [5]: 2.8 nM; inhibition of forskolin-induced cAMP production, Emax [5]: 28.7%; inhibition of forskolin-induced cAMP production, pEC50 [5]: 8.6 -log M; inhibition of forskolin-induced cAMP production, EC50 (Table 3) [3]: 2.7 nM; IC50 [6]: 0.093 nM; pIC50 [6]: 10.1 -log M
8.4 | 8.6 | 8.9 | 8.6 | 0.074 nM | 10.1 -log M | 2.1 nM | 28.3% | 8.7 -log M | 2.3 nM | 86.2% | 8.6 -log M | 1.3 nM | 140% | 8.9 -log M | 0.4 nM | 35.7% | 9.4 -log M | CCL15(Δ28) (ligand) | –
